The values that follow come from patent US20070003549A1 (published 2007).

The labels stand for the following.
B1: IgG-like format No. 10 (DOM15-26 VH on CH / DOM16-52 VH on CK) (bispecific antibody, V domains shown)
V domain 1: EVQLLESGGGLVQPGGSLRLSCAASGFTFGAYPMMWVRQAPGKGLEWVSEISPSGSYTYYADSVKGRFTISRDNSKNTLYLQMNSLRAEDTAVYYCAKDPRKFDYWGQGTLVTVSS
V domain 2: EVQLLESGGGLVQPGGSLRLSCAASGFTFAEQPMTWARQAPGKGLEWVSSISSFGDLTYYADSVKGRFTISRDNSKNTLYLQMNSLRAEDTAVYYCAKGVYRISRFDYWGQGTLVTVSS
notes: IgG-like format; also called IgG 10
B2: IgG-like format No. 19 (DOM15-26 VH on CH / Dummy VK on CK) (antibody, V domains shown, not shown: a dimerising Fc or GST)
VH: EVQLLESGGGLVQPGGSLRLSCAASGFTFGAYPMMWVRQAPGKGLEWVSEISPSGSYTYYADSVKGRFTISRDNSKNTLYLQMNSLRAEDTAVYYCAKDPRKFDYWGQGTLVTVSS
notes: IgG-like format; also called IgG 19
B3: TAR15-6 (other)
VH: EVQLLESGGGLVQPGGSLRLSCAASGFTFHLYDMMWVRQAPGKGLEWVSFIGGDGLNTYYADSVKGRFTISRDNSKNTLYLQMNSLRAEDTAVYYCAKAGTQFDYWGQGTLVTVSS
notes: Human dAb, VH single variable domain
B4: TAR15-8 (other)
VH: EVQLLESGGGLVQPGGSLRLSCAASGFTFQWYPMWWVRQAPGKGLEWVSLIEGQGDRTYYADSVKGRFTISRDNSKNTLYLQMNSLRAEDTAVYYCAKAGDRTAGSRGNSFDYWGQGTLVTVSS
notes: as for B3
B5: TAR15-24 (other)
VH: EVQLLESGGGLVQPGGSLRLSCAASGFTFTGYEMGWVRQAPGKGLEWVSYISRGGRWTYYADSVKGRFTISRDNSKNTLYLQMNSLRAEDTAVYYCAKSDTMFDYWGQGTLVTVSS
notes: as for B3
B6: TAR15-25 (other)
VH: EVQLLESGGGLVQPGGSLRLSCAASGFTFSAYEMGWVRQAPGKGLEWVSFISGGGRWTYYADSVKGRFTISRDNSKNTLYLQMNSLRAEDTAVYYCAKYSEDFDYWGQGTLVTVSS
notes: as for B3
B7: TAR15-29 (other)
VH: EVQLLESGGGLVQPGGSLRLSCAASGFTFGEYGMYWVRQAPGKGLEWVSSISERGRLTYYADSVKGRFTISRDNSKNTLYLQMNNLRAEDTAVYYCAKSALSSEGFSRSFDYWGQGTLVTVSS
notes: as for B3
B8: TAR15-5 (other)
VH: EVQLLESGGGLVQPGGSLRLSCAASGFTFRLYDMVWVRQAPGKGLEWVSYISSGGSGTYYADSVKGRFTISRDNSKNTLYLQMNSLRAEDTAVYYCAKAGGRASFDYWGQGTLVTVSS
notes: as for B3
B9: TAR15-7 (other)
VH: EVQLLESGGGLVQPGGSLRLSCAASGFTFNKYPMMWVRQAPGKGLEWVSEISPSGQDTYYADSVKGRFTISRDNSKNTLYLQMNSLRAEDTAVYYCAKNPQILSNFDYWGQGTLVTVSS
notes: as for B3
B10: TAR15-30 (other)
VH: EVQLLESGGGLVQPGGSLRLSCAASGFTFSDYAMYWVRQAPGKGLEWVSSITARGFITYYADSVKGRFTISRDNSKNTLYLQMNSLRAEDTAVYYCAKSGFPHKSGSNYFDYWGQGTLVTVSS
notes: as for B3
B11: TAR15-27 (other)
VH: EVQLLESGGGLVQPGGSLRLSCAASGFTFQFYKMGWVRQAPGKGLEWVSSISSVGDATYYADSVKGRFTISRDNSKNTLYLQMNSLRAEDTAVYYCAKMGGGPPTYVVYFDYWGQGTLVTVSS
notes: as for B3
B12: TAR15-23 (other)
VH: EVQLLESGGGLVQPGGSLRLSCAASGFTFKAYEMGWVRQAPGKGLEWVSGISPNGGWTYYADSVKGRFTISRDNSKNTLYLQMNSLRAEDTAVYYCAKESISPTPLGFDYWGQGTLVTVSS
notes: as for B3

The first assay deals with T1, VEGF-165 (human, UniProt P15692-4 27-191). In words: cell-based or functional assay.
T1 sequence (P15692 other isoform, or with tags, fused parts or gaps limits assumed): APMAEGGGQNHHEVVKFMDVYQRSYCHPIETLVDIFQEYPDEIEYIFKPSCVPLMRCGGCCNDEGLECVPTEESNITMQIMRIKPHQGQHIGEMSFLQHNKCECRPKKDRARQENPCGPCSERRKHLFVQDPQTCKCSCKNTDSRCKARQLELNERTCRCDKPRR
Regarding B1, the “VEGF (bioassay) ND50” value is 0.2 nM.

The next assay addresses T1, VEGF-165. In words: VEGF RBA (ELISA): inhibition of VEGF binding to VEGF receptor (R1 or R2 not specified); IgG-like format.
The term IC50 denotes the concentration needed to halve the response being measured. As to B1, the IC50 was found to be 0.05 nM. Regarding B2, the IC50 came to 4.8 nM.

Another assay addresses T1, VEGF-165. In words: supernatant VEGFR2 RBA (ELISA); + = more than 50% reduction of VEGF binding to VEGF R2/Fc; dAb assayed at 50 nM. (ELISA stands for enzyme-linked immunosorbent assay.)
Consider B3, for which the binding result is “binds”.

B4: the binding result is “binds”. Regarding B5, the binding result was “binds”. On the same count and under the same terms, the entry for B6 is “binds”; for B7 it is “binds”. As for B8, the binding result is on record as “binds”.

As for B9, the binding result is recorded as “binds”.

On to B10, for which the binding result is given as “binds”.

As to B11, the binding result was “binds”. Same read-out and setting: the entry for B12 is “binds”.
